To fix the notation:
B1: 18181-A6 (scFv)
scFv: EVQLLESGGGLVQPGGSLRLSCAASGFTFSNAWMSWVRQAPGKGLEWVGRIKGNTYGGTTDYAAPVKGRFTISRDDSKNTLYLQMNSLKTEDTAVYYCTTPSYSGSYYNYFSVMDVWGQGTTVTVSSGGGGSGGGGSGGGGSELVMTQSPSSLSASVGDRVTITCRASQSISSYLNWYQQKPGRAPKLLIFAASSLQGGVPSRFSGSGSGTDFTLTISSLQPEDFATYYCQQTYSMPFTFGPGTKLEIK
notes: scFv in bacterial lysate, detected with anti-Flag M2
B2: 18181-G8 (scFv)
scFv: B1 scFv with Y82F, Y103N, A167T, R184K, F191Y, G198S, P242G, L246V
notes: as for B1
B3: 18181-F1 (scFv)
scFv: B1 scFv with Q13K, Y82F, A167T, M236S
notes: as for B1
B4: 18181-F3 (scFv)
scFv: B1 scFv with Y82F, A167T, T233S, M236S, L246V
notes: as for B1
B5: 18181-G10 (scFv)
scFv: EVQLLESGPGLVKPSQTLSLTCTVSGDSISSNPYYWSWIRQLPGKGLEWIGYISYSGSTFYNPSLKSRVTISVDTSKNQFSLNLTSVTAADTAVYYCARDRLWFGVLNYYYGMDVWGLGTTVTVSSGGGGSGGGGSGGGGSELVMTQSPLSLPVTPGEPASISCRSSQSLLHSTGYNYVDWYLQKPGQSPQLLIYLGSNRASGVPDRFSGSGSGTDFTLKISRVEAEDVGFYYCMQALQTPRTFGQGTKVEIK
notes: as for B1
B6: 18181-E2 (scFv)
scFv: B5 scFv with L42H, Y55H, F60Y, T174S, V179L, R223K, F231V, E251D
notes: as for B1
B7: 18181-C9 (scFv)
scFv: B5 scFv with M145L, S173R, T174N, V179L, F231V, A237G, R242F, Q246P
notes: as for B1
B8: 18181-B8 (scFv)
scFv: EVQLLESGPGLVKPSQTLSLTCTVSGGSISSGGYYWSWIRQHPGKGLEWIGYISHSGSTYYNPSLKSRVTISVDTSKNQFSLNLTSVTAADTAVYYCAREKMWFGVLNYYYGMDVWGQGTTVTVSSGGGGSGGGGSGGGGSELVMTQTPLSLPVTPGEPASISCRSSQSLLHRNGYNYLDWYLQKPGQSPQLLIYLGSNRASGVPDRFIGSGSGTDFTLEISRVEAEDVGVYYCMQALQTPSFGQGTKVEIK
notes: as for B1
B9: 18093-B11 (scFv)
scFv: EVQLLESGGGLVKPGGSLRLSCAASGFTFSDYYMSWIRQAPGKGLEWVSYISKSGSTIYYADSVKGRFTISRDNAKNSLYLQMNSLRAEDTAVYYCATYNYGHFDYWGQGTLVTVSSGGGGSGGGGSGGGGSELVLTQPPSVSVAPGQTARITCGGNNIGSKSVHWYQQKPGQAPVLVVYDDSDRPSGIPERFSGSNSGNTATLTISRVEAGDEADYYCQVWDSSSDHHVVFGGGTKLTVL
notes: as for B1

Drawing on US20220017636A1 (Amgen, published 2022), this text covers Signal/background for nine molecules.

Residue numbers refer to the chain shown, from its start.

One test has as its target T1, COX14 peptide complexed with HLA-A*02:01 on T2 cells (human).
T1 construct: whole, on cells
Put plainly: flow cytometry, peptide-loaded T2 cells.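 Further: binding of single-chain Fv antibody constructs, raised in XenoMouse, to peptide-pulsed T2 cells measured by flow cytometry.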 For orientation: Flow cytometry measures light scatter and fluorescence of single cells or particles in a stream.
Experimental: (§1) Binding of pMAGE-HLA scFv constructs, generated from the XenoMouse, on peptide loaded T2 cells was evaluated by flow cytometry.
In the case of B1, the Signal/background is 0.9.

Molecule B2 registered a Signal/background of 1.

Consider B3, for which the Signal/background is 1.1.

Molecule B4 displayed a Signal/background of 0.9.

On to B5, for which the Signal/background was found to be 1.

Molecule B6 displayed a Signal/background of 1.1.

The molecule B7 displayed a Signal/background of 0.9.

On to B8, for which the Signal/background was 0.9.

B9: the Signal/background is 1.2.

For a further test, the target named is T2, CNDP2 peptide complexed with HLA-A*02:01 on T2 cells (human).
T2 construct: whole, on cells; also called CNPD2
Put plainly: flow cytometry, peptide-loaded T2 cells.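 Further: binding of single-chain Fv antibody constructs, raised in XenoMouse, to peptide-pulsed T2 cells measured by flow cytometry.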
Experimental: as §1
B1: the Signal/background is 1.

Turning to B2, the Signal/background came out at 1.

As to B3, the Signal/background came out at 1.1.

In turn, B4 displayed a Signal/background of 1.1.

As to B5, the Signal/background is 1.1.

The molecule B6 returned a Signal/background of 1.

On to B7, for which the Signal/background was 1.

For the molecule B8, the Signal/background came to 1.

With B9, the Signal/background was 1.

Another test concerns the target T3, MYOF peptide complexed with HLA-A*02:01 on T2 cells (human).
T3 construct: whole, on cells
Put plainly: flow cytometry, peptide-loaded T2 cells.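 Further: binding of single-chain Fv antibody constructs, raised in XenoMouse, to peptide-pulsed T2 cells measured by flow cytometry.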
Experimental: as §1
As to B1, the Signal/background was determined as 1.1.

B2 returned a Signal/background of 1.

As to B3, the Signal/background came to 1.1.

B4 yielded a Signal/background of 1.1.

B5 gave a Signal/background of 1.

Molecule B6 registered a Signal/background of 1.1.

In the case of B7, the Signal/background stood at 1.1.

In turn, B8 showed a Signal/background of 1.

B9 had a Signal/background of 1.2.

A further test addresses T4, MB peptide complexed with HLA-A*02:01 on T2 cells (human).
T4 construct: whole, on cells
Put plainly: flow cytometry, peptide-loaded T2 cells.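 Further: binding of single-chain Fv antibody constructs, raised in XenoMouse, to peptide-pulsed T2 cells measured by flow cytometry.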
Experimental: as §1
In turn, B1 returned a Signal/background of 1.

B2: the Signal/background was determined as 0.9.

The molecule B3 had a Signal/background of 1.

B4 gave a Signal/background of 0.9.

For the molecule B5, the Signal/background is 1.

As for B6, the Signal/background was determined as 1.

B7: the Signal/background came to 1.

B8 had a Signal/background of 0.9.

Turning to B9, the Signal/background is 1.2.

A further test deals with T5, SLK peptide complexed with HLA-A*02:01 on T2 cells (human).
T5 construct: whole, on cells
Put plainly: flow cytometry, peptide-loaded T2 cells.
Experimental: as §1
On to B1, for which the Signal/background amounted to 1.1.

Regarding B2, the Signal/background is 1.

Molecule B3 showed a Signal/background of 1.1.

In the case of B4, the Signal/background was 1.

B5 registered a Signal/background of 1.1.

With B6, the Signal/background was 1.1.

B7 showed a Signal/background of 1.

In the case of B8, the Signal/background was 1.

B9 yielded a Signal/background of 1.1.

Another test addresses T6, MAGEB2 peptide … (SEQ ID NO: 1) complexed with HLA-A*02:01 on the cell surface (human).
T6 construct: whole, on cells; also called pMAGE-HLA; MAGEB2 pMHC
Put plainly: flow cytometry, peptide-loaded T2 cells.
Experimental: as §1
On to B1, for which the Signal/background was 430.

For B2, the Signal/background turned out to be 489.

As for B3, the Signal/background stood at 443.

The molecule B4 yielded a Signal/background of 232.

In the case of B5, the Signal/background is 121.

Regarding B6, the Signal/background amounted to 103.

In the case of B7, the Signal/background came out at 140.

In turn, B8 gave a Signal/background of 179.

B9 returned a Signal/background of 219.

For another test, the target named is T7, DPYSL4 peptide complexed with HLA-A*02:01 on T2 cells (human).
T7 construct: whole, on cells
Put plainly: flow cytometry, peptide-loaded T2 cells.
Experimental: as §1
Molecule B1 came in with a Signal/background of 1.

In turn, B2 displayed a Signal/background of 1.1.

B3 displayed a Signal/background of 1.1.

On to B4, for which the Signal/background is 1.1.

Molecule B5 gave a Signal/background of 1.

As to B6, the Signal/background turned out to be 1.

The molecule B7 had a Signal/background of 0.9.

Molecule B8 had a Signal/background of 1.

In turn, B9 came in with a Signal/background of 1.

The target in the next test is T8, KEA peptide complexed with HLA-A*02:01 on T2 cells (human).
T8 construct: whole, on cells
Put plainly: flow cytometry, peptide-loaded T2 cells.
Experimental: as §1
With B1, the Signal/background worked out at 0.9.

In the case of B2, the Signal/background worked out at 0.9.

Regarding B3, the Signal/background came out at 0.9.

B4 came in with a Signal/background of 1.

Turning to B5, the Signal/background came to 1.

Molecule B6 displayed a Signal/background of 1.

On to B7, for which the Signal/background is 0.9.

Molecule B8 returned a Signal/background of 0.9.

Molecule B9 showed a Signal/background of 1.1.

A further test deals with T9, STXBP5 peptide complexed with HLA-A*02:01 on T2 cells (human).
T9 construct: whole, on cells
Put plainly: flow cytometry, peptide-loaded T2 cells.
Experimental: as §1
The molecule B1 showed a Signal/background of 1.

In turn, B2 returned a Signal/background of 1.

In turn, B3 registered a Signal/background of 1.

As for B4, the Signal/background was found to be 1.2.

B5 had a Signal/background of 1.

B6 gave a Signal/background of 1.1.

For the molecule B7, the Signal/background stood at 1.1.

For B8, the Signal/background came to 0.9.

B9 displayed a Signal/background of 1.1.

A further test has as its target T10, ADF peptide complexed with HLA-A*02:01 on T2 cells (human).
T10 construct: whole, on cells
Put plainly: flow cytometry, peptide-loaded T2 cells.
Experimental: as §1
On to B1, for which the Signal/background worked out at 1.

B2 came in with a Signal/background of 1.

On to B3, for which the Signal/background is 1.1.

B4 showed a Signal/background of 1.

With B5, the Signal/background was 1.

Consider B6, for which the Signal/background is 1.1.

Regarding B7, the Signal/background came out at 1.

Turning to B8, the Signal/background came to 1.

Turning to B9, the Signal/background turned out to be 1.1.
